The values that follow come from patent US20120244132A1 (published 2012).

For this assay, the target named is T1, latent membrane protein 2 (LMP-2) from the Epstein Barr Virus (EBV) peptide on HLA-A*02:01 (human).
T1 peptide: CLGGLLTMV
The experiment in a line: multimer staining.

B1: EBVa14-p2A-Vb7.7 (LMP-2-specific TCR of SEQ ID No. 8) (TCR, V domains shown)
Valpha: AQKITQTQPGMFVQEKEAVTLDCTYDTSDQSYGLFWYKQPSSGEMIFLIYQGSYDEQNATEGRYSLNFQKARKSANLVISASQLGDSAMYFCAMREGSGSARQLTFGSGTQLTVLP
Vbeta: GAGVSQSPRYKVTKRGQDVTLRCDPISSHATLYWYQQALGQGPEFLTYFNYEAQPDKSGLPSDRFSAERPEGSISTLTIQRTEQRDSAMYRCASSLGPAGIQETQYFGPGTRLLVL
On to B1, for which the binding result is “recognises”.
